Data from patent publication US20250295803A1, “5T4 ANTIBODY-DRUG CONJUGATES AND USES THEREOF” (EXELIXIS, INC., priority 2022, published 2025).
Where a chain is given by its changes, count along the chain named.

T1: human 5T4 (Homo sapiens, UniProt Q13641)
T1 sequence (Q13641 32-355 limits assumed): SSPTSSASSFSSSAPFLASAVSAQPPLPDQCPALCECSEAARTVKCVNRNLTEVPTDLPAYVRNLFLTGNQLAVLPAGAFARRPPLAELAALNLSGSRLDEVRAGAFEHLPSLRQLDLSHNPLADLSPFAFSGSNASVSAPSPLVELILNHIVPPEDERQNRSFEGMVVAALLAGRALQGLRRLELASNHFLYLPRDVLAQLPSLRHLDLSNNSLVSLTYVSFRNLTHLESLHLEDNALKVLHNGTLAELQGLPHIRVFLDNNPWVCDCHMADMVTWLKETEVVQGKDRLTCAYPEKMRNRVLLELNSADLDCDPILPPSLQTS

T2: unconjugated human TPBG/5T4 protein with a c-terminal polyhistidine and Avi tag (AcroBiosystems Cat. No. … (human, UniProt Q13641 32-355))
T2 construct: Bought protein; also called Acro TPGH52E5; Acro Catalog No. TPGH52E; not shown: C-terminal polyhistidine and Avi tag
T2 sequence: T1 sequence (Q13641 32-355 limits assumed)

B1: mAbA17: 5T4 antibody comprising VH of SEQ ID NO:62 and VL of SEQ ID NO:63 (antibody, V domains shown)
VH: EVQLVESGGGLVQPGGSLRLSCAASGFTFSRYWIHWVRQAPGKGLEWVAAIFPYSGSTLYADSVKGRFTISADTSKNTAYLQMNSLRAEDTAVYYCARSPSRSILPSGLDYWGQGTLVTVSS
VL: DIQMTQSPSSLSASVGDRVTITCRASQSVSSAVAWYQQKPGKAPKLLIYSASSLYSGVPSRFSGSRSGTDFTLTISSLQPEDFATYYCQQGDGSPYTFGQGTKVEIK
modifications: Antibody mAbA17 VH Sequence; Antibody mAbA17 VL Sequence
B2: mAbA4: 5T4 antibody comprising VH of SEQ ID NO:25 and VL of SEQ ID NO:26 (antibody, V domains shown)
VH: EVQLVESGGGLVQPGGSLRLSCAASGFTFSRYYIHWVRQAPGKGLEWVAFISPGGSYTYYADSVKGRFTISADTSKNTAYLQMNSLRAEDTAVYYCAREYYSMGVLDYWGQGTLVTVSS
VL: B1 VL with G91A, D92Y, G93E
modifications: Antibody mAbA4 VH Sequence; Antibody mAbA4 VL Sequence
B3: mAbA15: 5T4 antibody comprising VH of SEQ ID NO:44 and VL of SEQ ID NO:45 (antibody, V domains shown)
VH: EVQLVESGGGLVQPGGSLRLSCAASGFTFSSYYIHWVRQAPGKGLEWVAYITSTGSYTEYADSVKGRFTISADTSKNTAYLQMNSLRAEDTAVYYCARYDRSTRYSGLDYWGQGTLVTVSS
VL: B1 VL with G91A, D92Y, G93A, S94T, Y96V
modifications: Antibody mAbA15 VH Sequence; Antibody mAbA15 VL Sequence
B4: mAbA17 (antibody, V domains shown)
VH: B1 VH
VL: DIQMTQSPSSLSASVGDRVTITCRASQSVSSAVAWYQQKPGKAPKLLIYSASSLYSGVPSRFSGSRSGTDFTLTISSLQPEDFATYYCQQGDGSPYTFGQGTKVEIKR
notes: also called Antibody mAbA17
B5: mAbA4 (antibody, V domains shown)
VH: B2 VH
VL: B4 VL with G91A, D92Y, G93E
notes: also called Antibody mAbA4
B6: mAbA15 (antibody, V domains shown)
VH: B3 VH
VL: B4 VL with G91A, D92Y, G93A, S94T, Y96V
notes: also called Antibody mAbA15

Test system: HEK-5T4 cells
Test: Cell binding (flow cytometry), HEK-5T4 cells
Format: cell-based
Conditions: not given
Protocol: Antibodies that were selected for binding to 5T4, for example, such as those described in Example 2, were evaluated for binding to cells that express 5T4. Cells were harvested at 70-90% confluence on the day of the assay. In a v-bottom 96-well plate (Costar 3897), 100,000 cells per well were incubated with 50 μL per well 8- or 12-point antibody dilution series for 30 minutes at +4° C. After incubation, cells were washed once with PBS by centrifugation at 200×g for 5 minutes. Cells were then incubated with 50 μL per well of Alexa Fluor 488 Goat anti-human IgG Fab (Jackson Immuno Research 109-547-003) at 1:100 dilution for 30 minutes at +4° C. Cells were washed twice with PBS by centrifugation at 200×g for 5 minutes and were acquired on iQue Screener Plus (Sartorius). Mean fluorescence intensities of BL1 (Alexa-Fluor-488) channel were plotted against antibody concentrations to generate a dose response curve and EC50 values.

| Molecule | binding to HEK-5T4 cells |
| --- | --- |
| B1 | binding |
| B2 | binding |
| B3 | binding |

Test system: not listed separately
Test: Hydrophobic interaction chromatography (HIC) developability
Format: physicochemical
Conditions: 1 mg/mL in Dulbecco's PBS pH 7.4
Protocol: Antibodies that were selected for binding to 5T4, such as those described in Examples 2 and 3, were tested by various methods to assess developability. For example, various chromatographic methods, including size exclusion chromatography (SEC), hydrophobic interaction chromatography (HIC), and standup monolayer adsorption chromatography (SMAC) were employed to assess factors, such as monomer percentage, solubility, and antibody aggregation or precipitation.
Hydrophobic interaction chromatography (HIC) analysis was performed using a 4.6 mm ID×3.5 cm TSKgel Butyl-NPR column (Tosoh Bioscience LLC, PN 14947) on an Agilent 1100 HPLC. Antibodies were normalized to 1 mg/mL concentration in Dulbecco's PBS (pH 7.4, without Ca^2+/Mg^2+). The column was equilibrated with 100% mobile phase Buffer A (2 M ammonium sulfate/20 mM sodium phosphate, pH 7.0) at a flow rate of 1 mL/minute at ambient temperature. For each sample, 10 μL was loaded and eluted using a gradient from 100% mobile phase buffer A to 100% mobile phase buffer B (20 mM sodium phosphate, pH 7.0) at 1.0 mL/minute over 15 minutes, held at 100% B for 3 minutes to wash the column, and returned 100% A for 2 minutes for equilibration. Absorbance was monitored at 280 nm. Sample retention time was calculated and compared to a set of standard controls to identify antibodies with increased retention time (increased hydrophobicity) and the presence of multiple species. Data analysis was performed using Agilent ChemStation B.04.03 SP1

| Molecule | developability based on HIC analysis |
| --- | --- |
| B1 | strong developability |
| B2 | strong developability |
| B3 | strong developability |

Test system: not listed separately
Test: Protein thermal shift (melting temperature)
Format: physicochemical
Conditions: not given
Protocol: Samples for protein thermal shift experiments (melting temperature) were prepared using the APPLIED BIOSYSTEMS™ PROTEIN THERMAL SHIFT™ Dye Kit (ThermoFisher Scientific Cat. No. 4461146). Data were collected using a QUANTSTUDIO™ 3 instrument (ThermoFisher Scientific Cat. No. A28567) with PROTEIN THERMAL SHIFT™ Software v1.4 (ThermoFisher Scientific Cat. No. 466038). Briefly, PROTEIN THERMAL SHIFT™ dye (1000×) was diluted in water to 8× in deionized water. Samples were prepared on ice by combining 5 μL of PROTEIN THERMAL SHIFT™ Buffer, 12.5 μL of protein solution, and 2.5 μL of the diluted PROTEIN THERMAL SHIFT™ Dye (8×) for a total reaction solution volume of 20 μL. The reaction solution was mixed 10 times with a pipette. Tubes were then spun down at 1000 rpm for 1 minute and then incubated on ice until analysis. Samples were loaded onto the instrument plate, which were then loaded into a QUANTSTUDIO™ 3 Real-Time PCR System instrument. Data was collected using the standard Melt Curve experiment with the following conditions: Step 1 temperature: 25° C. for 2 minutes; Step 2 temperature: 99° C. for 2 minutes with continuous fast ramp mode (Step 1: 1.6° C./sec; Step 2: 0.05° C./sec). Raw melting temperature data were deconvoluted within the QUANTSTUDIO™ 3 analysis software.

| Molecule | CH2 Tm | Fab Tm |
| --- | --- | --- |
| B1 | 70.06 | 81.92 |
| B2 | 69.18 | 89.94 |
| B3 | 70.07 | 86.38 |

Target: T1, human 5T4
Test: Octet monovalent binding affinity assay
Design: polyhistidine (C); Avi tag (C); purchased Acro Biosystems TPGH52E
Conditions: in all three lots of human 5T4
Protocol: (§1) Monovalent binding assays were employed to determine the relative affinity of each 5T4 binder obtained by the phage display in Example 1 to human 5T4. Human 5T4 was purchased from Acro Biosystems (Acro Catalog No. TPGH52E) and also produced separately. The monovalent interaction of binders to human 5T4 was monitored using an Octet (Pall ForteBio) instrument. For these assays, 36 nM antibody was immobilized on anti-human Fc (AHC) sensors in 1× kinetic buffer (ForteBio). The sensors were then dipped in wells containing a 3× serial dilution of human 5T4 ranging from 1 μM to 1.37 nM. The association was allowed to reach equilibrium. Sensors were then moved to wells containing only 1× kinetic buffer and allowed to dissociate to equilibrium. Association and dissociation rates were measured and from these, monovalent KDS were calculated using the onboard analysis software (ForteBio).

| Molecule | monovalent binding strength |
| --- | --- |
| B1 | strong or moderate binding |
| B2 | strong or moderate binding |
| B3 | strong or moderate binding |

Target: T2, unconjugated human TPBG/5T4 protein …
Test: Octet, antibody on AHC sensors, human 5T4 in solution (monovalent); Acro TPGH52E5 Lot B465-87AF1-JP
Conditions: not given
Protocol: as §1

| Molecule | Kd [nM] |
| --- | --- |
| B4 | 21.1 |
| B5 | 30.2 |
| B6 | 11.2 |
